B1: 15H12 fully human monoclonal anti-IGFR1 antibody (antibody, IgG3, V domains shown)
VH: EVQLVQSGGGLVHPGGSLRLSCAASGFTFSSFAMHWVRQAPGKGLEWISVIDTRGATYYADSVKGRFTISRDNAKNSLYLQMNSLRAEDMAVYYCARLGNFYYGMDVWGQGTTVTVSS
VL: EIVLTQVPDFQSVTPKEKVTITCRASQSIGSSLHWYQQKPDQSPKLLIKYASQSLSGVPSRFSGSGSGTDFTLTINSLEAEDAAAYYCHQSSRLPHTFGGGTKVEIKR
B2: 19D12 fully human monoclonal anti-IGFR1 antibody (antibody, V domains shown)
VH: EVQLVQSGGGLVHPGGSLRLSCAASGFTFSSFAMHWVRQAPGKGLEWISVIDTRGATYYADSVKGRFTISRDNAKNSLYLQMNSLRAEDMAVYYCARLGNFYYGMDVWGQGTTVTVSS
VL: EIVLTQVPDFQSVTPKEKVTITCRASQSIGSSLHWYQQKPDQSPKLLIKYASQSLSGVPSRFSGSGSGTDFTLTINSLEAEDAAAYYCHQSSRLPHTFGGGTKVEIKR

How the values were obtained:
[1] = target: soluble IGFR1 (sIGFR1), NSO-expressed recombinant protein encompassing the alpha-subunit and the extracellular domain of the beta-subunit of IGFR1 (human) (UniProt P08069); test: isotype ELISA on coated soluble IGFR1, detected with HRP-anti-human IgG3
[2] = target: soluble IGFR1 (sIGFR1), NSO-expressed recombinant protein encompassing the alpha-subunit and the extracellular domain of the beta-subunit of IGFR1 (human) (UniProt P08069); test: isotype ELISA on coated soluble IGFR1, detected with HRP-anti-hu-gamma
[3] = target: soluble IGFR1 (sIGFR1), NSO-expressed recombinant protein encompassing the alpha-subunit and the extracellular domain of the beta-subunit of IGFR1 (human) (UniProt P08069); test: isotype ELISA on coated soluble IGFR1, detected with HRP-anti-hu kappa
[4] = target: soluble IGFR1 (sIGFR1), NSO-expressed recombinant protein encompassing the alpha-subunit and the extracellular domain of the beta-subunit of IGFR1 (human) (UniProt P08069); test: SPR (Biacore 3000), IGFR1 on CM-5 chip, 25° C.
[5] = target: soluble IGFR1 (sIGFR1), NSO-expressed recombinant protein encompassing the alpha-subunit and the extracellular domain of the beta-subunit of IGFR1 (human) (UniProt P08069); test: SPR (Biacore 3000), IGFR1 on CM-5 chip, 37° C.; calculated from koff
[6] = target: soluble IGFR1 (sIGFR1), NSO-expressed recombinant protein encompassing the alpha-subunit and the extracellular domain of the beta-subunit of IGFR1 (human) (UniProt P08069); test: SPR (Biacore 3000), IGFR1 on CM-5 chip, 37° C.
[7] = target: soluble IGFR1 (sIGFR1), NSO-expressed recombinant protein encompassing the alpha-subunit and the extracellular domain of the beta-subunit of IGFR1 (human) (UniProt P08069); test: SPR (Biacore 3000), IGFR1 on CM-5 chip, 25° C.; 25° C.
[8] = target: soluble IGFR1 (sIGFR1), NSO-expressed recombinant protein encompassing the alpha-subunit and the extracellular domain of the beta-subunit of IGFR1 (human) (UniProt P08069); test: SPR (Biacore 3000), IGFR1 on CM-5 chip, 25° C.; calculated from koff

Row | ELISA signal (OD415 nm-490 nm) [1] [OD] | ELISA signal (OD415 nm-490 nm) [2] [OD] | ELISA signal (OD415 nm-490 nm) [3] [OD] | koff [4] [s⁻¹] | Half-life [5] [h] | koff [6] [s⁻¹] | kon [6] [M⁻¹ s⁻¹] | kon [7] [M⁻¹ s⁻¹] | Half-life [8] [h] | kon [4] [M⁻¹ s⁻¹] | Binder
1 | 0.813 | 1.9 | 1 | 2.24e-05 | 4.8 | 4.01e-05 | 720000 | 500000 | 8.6 | – | B1
2 | – | – | – | 2.65e-05 | 3.91 | 4.93e-05 | 680000 | – | 7.27 | 400000 | B2

Source: patent US20040018191A1
